Assay results from patent US20210106703A1, “RADIOIMMUNOCONJUGATES IN COMBINATION WITH OTHER DRUGS AS TREATMENT AGAINST NHL” (Nordic Nanovector ASA, priority 2017, published 2021).

Legend:
[1] = system: U-2932 cells; assay: Real Time Glo viability screen and validation, Betalutin with PARP or cell cycle kinase inhibitors (Examples 4, 7); format: cell-based, human; conditions: U-2932, validation screen, 0-1280 nM
[2] = system: Ramos cells; assay: Proliferation study with Wee-1/Myt-1 inhibitors and ^177Lu-lilotomab; format: cell-based, human; conditions: inhibitor 1 μM + ^177Lu-lilotomab 6 MBq/mL (RIT) for 18 h, 6 days after start
Experimental: (§1) Cells were treated for 18 h with 1 μM of the selective Wee-1 kinase inhibitor MK-1775 (Selleckchem, Houston, USA) or of the dual Wee-1/Myt-1 inhibitor PD-166285 (EMD Merck Millipore/Calbiochem, Molsheim, France) alone or in combination with 6 MBq/mL, 2 MBq/mL and 0.5 MB/mL of ^177Lu-lilotomab for Ramos, Rec-1 and DOHH2 cells respectively. At different times after start of incubation, proteins were extracted to measure the CDK1 phosphorylation levels, in parallel, proliferation was determined and at 18 h and 24 h after start of incubation, the percentage of cells in G2/M was assessed (experiments were performed three time except the cell cycle analysis).
(§2) The activity used for the treatment with ^177Lu-lilotomab was chosen to decrease the proliferation to about 50% for the three cell lines compared with non-treated cells.
(§3) Inhibition of G2/M cell cycle arrest radiosensitises radioresistant Ramos model. The Bliss independence mathematical model was next used to investigate the role of MK-1775 or PD-166285 on the response to ^177Lu-lilotomab. A theoretical therapeutic efficacy was calculated for the two combinations (MK-1775 or PD-166285) in the three cell lines. And the comparison between the experimental and the theoretical curves was done.
(§4) Theoretical efficacyRIT+inhib=EfficacyRIT+Efficacyinhib−(EfficacyRIT×Efficacyinhib)

[3] = system: Rec-1 cells; assay: as above; format: cell-based, human; conditions: Rec-1, inhibitor 1 μM + ^177Lu-lilotomab 2 MBq/mL for 18 h, versus either alone
Experimental: as §1, §2, §3, §4

[4] = system: Ramos cells; assay: Apoptosis induction (Annexin V/7-AAD, Muse flow cytometer); format: cell-based, human; conditions: 6 MBq/mL radiolabelled mAb for 18 h, peak time 72 h
Experimental: (§5) Cells were harvested at 0, 2 h, 18 h, 1 d, 2 d, 3 d of RIT. At each time point, apoptosis was detected with […] from Merck Millipore (Annexin V Kit with 7-AAD) in the dark for 30 min at room temperature before analysis using Muse® flow cytometer

[5] = system: Rec-1 cells; assay: as above; format: cell-based, human; conditions: Rec-1, 6 MBq/mL radiolabelled mAb for 18 h, peak time 72 h
Experimental: as §5

[6] = system: CDK1 and its phosphorylations, p345-Chk1, Wee-1, Myt-1, CDK7 in DOHH2 cells; assay: Protein expression by Western blot; format: cell-based, human
Experimental: (§6) Protein expression was assessed in 1×10^6 Ramos, DOHH2 or Rec-1 cells/mL grown in 12-well plates and exposed for 18 h to 0 and 6 MBq/mL of ^177Lu-lilotomab. Cells were harvested at 0, 2 h, 18 h, 1 d, 2 d and 3 d of RIT. At each time point, cells were rinsed and incubated in RIPA buffer (Santa Cruz) at 4° C. for 30 minutes. Cells were centrifuged and supernatant (containing proteins) were collected. Proteins were electrophoresed through SDS-PAGE using 12% poly-acrylamide gels and electrotransferred onto nitrocellulose membranes. Blots were incubated with anti-CDK1, anti-p-CDK1(Tyr15) (clone 10A11), anti-p-CDK1(Thr14), anti-p-CDK1(Thr161), anti-CDK7, anti-Wee-1 (clone D10D2), anti-Myt-1, anti-p-CHK1 (Ser345) and anti-human GAPDH (1/1000, Cell Signaling Technologies, Leiden, The Netherlands) primary antibodies. Blot were washed and incubated with horseradish peroxidase-conjugated anti-mouse Ig (115-036-072, Jackson ImmunoResearch) or with horseradish peroxidase-conjugated anti-rabbit Ig (7074, Cell Signaling). Signal detection of immunoblots was carried out using the enhanced chemiluminescence protocol according to the manufacturer's instructions (Clarity™ Western ECL blotting substrates, 1705061, BioRad). PXi analyser (Ozyme) was used to measure levels of protein expression.

[7] = system: CDK1 and its phosphorylations, p345-Chk1, Wee-1, Myt-1, CDK7 in Ramos cells; assay: Protein expression by Western blot; format: cell-based, human
Experimental: as §6

[8] = system: CDK1 and its phosphorylations, p345-Chk1, Wee-1, Myt-1, CDK7 in Rec-1 cells; assay: Protein expression by Western blot; format: cell-based, human
Experimental: as §6

[9] = system: CD3-/CD20+ cells from biopsies of patients with DLBCL or FL; conditions: 4 patient biopsies, 18 h exposure, day 4
Experimental: Frozen human biopsies from patients with DLBCL or FL were obtained from CHU de Montpellier Plateforme CRB/Hemodiag. Typically, cells were defrosted and grown at 0.5×10^6 cells/mL in 12-well plates at 37° C. in a humidified atmosphere of 95% air/5% CO2. Culture medium consisted of RPMI medium supplemented with 20% heat-inactivated fetal bovine serum, antibiotics ([…] penicillin and 100 μg/ml streptomycin), 50 ng/mL CD40L (His tagged; R&D system) and 5 μg/mL anti-his-tag antibody (R&D system, Abingdon, UK). After 5 h, they were treated with increasing amount of ^177Lu-lilotomab (0 to 6 MBq/mL) combined or not with MK-1775 or PD-166285 (1 μM) for 18 h. At the end of incubation, 50% of cells were analyzed by flow cytometry and the remaining cells were collected, centrifuged and washed twice with medium before being seeded in 12-well plates for 3 days more. After 3 days, cells were collected and analyzed by flow cytometry. Live/Dead fixable dead cell stain (Fisher scientific), anti-CD45, CD3, CD19, CD20 and CD10 mAbs (BD Pharmigen, Le pont de Claix, France) and anti-Kappa mAb (DAKO, Les Ulis, France) were used and analyzed by flow cytometry to determine quantity and proportion of tumor and non-tumor cells alive.

## Nc1nc(Nc2ccc(S(N)(=O)=O)cc2)nn1C(=O)c1c(F)cccc1F [JNJ-7706621]
[1]
  Effect of monotreatment on proliferation: not evident at concentrations below 160 nM

## C=CCn1c(=O)c2cnc(Nc3ccc(N4CCN(C)CC4)cc3)nc2n1-c1cccc(C(C)(C)O)n1 [MK-1775]
[2]
  Proliferation (treated/untreated cells): ~10%
[3]
  Proliferation (treated/untreated cells): statistically reduced the proliferation

B1: Lutetium-177 [^177Lu]-lilotomab satetraxetan (conjugate, chains of the INN, looked up)
VH: EIQLQQSGPELVKPGASVKVSCKASGYSFTDYNMYWVKQSHGKSLEWIGYIDPYNGDTTYNQKFKGKATLTVDKSSSTAFIHLNSLTSEDSAVYYCARSPYGHYAMDYWGQGTSVTVSS
VL: DIVMTQSHKLLSTSVGDRVSITCKASQDVSTAVDWYQQKPGQSPKLLINWASTRHTGVPDRFTGSGSGTDYTLTISSMQAEDLALYYCRQHYSTPFTFGSGTKLEIK
modifications: 177Lu satetraxetan chelator conjugate
[4]
  Apoptosis level: 33±8%
[5]
  Apoptosis level: 67±18%
[6]; DOHH2
  Expression of Wee-1: became undetectable at 24 h post-treatment
[6]; DOHH2, 6 MBq/mL for 18 h
  Activating pThr161 CDK1 phosphorylation: persistent increase
  CDK1 level: decreased in DOHH2 at 48 h and 72 h
  Inhibitory pTyr15 and pThr14 CDK1 phosphorylations: dropped respectively at 24 h and 48 h
[6]; DOHH2, 18 h after treatment
  Expression of Myt-1: decreased
[6]; DOHH2, at 18-24 h
  Level of phosphorylated CHK1 (Ser345): increased
[6]; DOHH2, compared with Ramos cells
  Levels of CDK7: stable or increased
[7]; 6 MBq/mL for 18 h
  Activating pThr161 CDK1 phosphorylation: transient low levels
  CDK1 level: quite stable
  Inhibitory pTyr15 and pThr14 CDK1 phosphorylations: high persistent levels
[7]; 18 h after treatment
  Expression of Myt-1: decreased
[7]; at 18-24 h
  Level of phosphorylated CHK1 (Ser345): increased
[7]; between 18 and 48 h
  Expression of Wee-1: comparable in control and treated
[8]; Rec-1
  Level of phosphorylated CHK1 (Ser345): remained stable until 18 h before progressively decreasing
[8]; Rec-1, 6 MBq/mL for 18 h
  Activating pThr161 CDK1 phosphorylation: undetectable
  CDK1 level: quite stable
[8]; Rec-1, 18 h after treatment
  Expression of Myt-1: decreased
[8]; Rec-1, between 18 and 48 h
  Expression of Wee-1: comparable in control and treated
[8]; Rec-1, compared with Ramos cells
  Levels of CDK7: stable or increased
[9]
  Proportion of tumor cells: reduced the proportion of tumor cells
